# B1: V3-4PA: V3 mutated at P330/1/4/6A (4 Pro residues in the Pro-rich motif to Ala) (protein)
# chain: MSPFLRIGLSNFDCGSCQSCQGEAVNPYCAVLVKEYVESENGQMYIQKKPTMYPPWDSTFDAHINKGRVMQIIVKGKNVDLISETTVELYSLAERCRKNNGKTEIWLELKPQGRMLMNARYFLEMSDTKDMNEFETEGFFALHQRRGAIKQAKVHHVKCHEFTATFFPQPTFCSVCHEFVWGLNKQGYQCRQCNAAIHKKCIDKVIAKCTGSAINSRETMFHKERFKIDMPHRFKVYNYKSPTFCEHCGTLLWGLARQGLKCDACGMNVHHRCQTKVANLCGINQKLMAEALAMIESTQQARCLRDTEQIFREGPVEIGLPCSIKNEARAACLATAGKREPQGISWESPLDEVDKMCHLPEPELNKERPSLQIKLKIEDFILHKMLGKGSFGKVFLAEFKKTNQFFAIKALKKDVVLMDDDVECTMVEKRVLSLAWEHPFLTHMFCTFQTKENLFFVMEYLNGGDLMYHIQSCHKFDLSRATFYAAEIILGLQFLHSKGIVYRDLKLDNILLDKDGHIKIADFGMCKENMLGDAKTNTFCGTPDYIAPEILLGQKYNHSVDWWSFGVLLYEMLIGQSPFHGQDEEELFHSIRMDNPFYPRWLEKEAKDLLVKLFVREPEKRLGVRGDIRQHPLFREINWEELERKEIDPPFRPKVKSPFDCSNFDKEFLNEKPRLSFADRALINSMDQNMFRNFSFMNPGMERLIS
# Experiments:
# [1] = system: endogenous PKCθ; assay: IS localization in OT-II CD4+ T cells conjugated with Ova-loaded APCs (confocal); format: cell-based, mouse; details: OT-II TCR-Tg CD4+ T cells
# Description: (FIG. 6A) OT-II CD4^+ T cells were infected with retrovirus expressing Myc-tagged V3 domain, V3 mutated at P330/1/4/6A (V3-4PA), or PR motif-deleted V3 (V3-ΔPR). Infected cells (green) were harvested, stimulated, and fixed. Conjugates were stained with anti-Myc plus a secondary Alexa 555-coupled antibody (orange), and anti-PKCθ plus a secondary Alexa 647-coupled antibody (red). Cells were analyzed as in FIG. 1A. (FIG. 6B) Quantitative analysis of the results shown in (FIG. 6A) from 30-50 T-APC conjugates. ** p<0.05. (FIG. 6C) MCC-specific T hybridoma cells were cotransfected with indicated vector, together with RE/AP-Luc and β-Gal reporter plasmids. Cells were stimulated and analyzed as in FIG. 1C. (FIG. 6D) Naïve CD4^+ T cells from B6 mice stimulated with anti-CD3 plus anti-CD28 mAbs and differentiated in vitro under Th1-, Th2- or Th17-polarizing conditions were retrovirally transduced with empty pMIG vector, or with the indicated PKCθ V3 vectors. Cytokine-producing cells were analyzed by intracellular staining 8 h after restimulation. Right panels represent cumulative data showing percentage of cytokine-producing cells by intracellular staining. (FIG. 6E) MCC-specific T hybridoma cells were cotransfected with the indicated plasmids, together with NFAT luciferase reporter and a β-Gal reporter plasmid. Cells were incubated with fibroblasts that express I-E^K and B7-1 in the absence or presence of MCC peptide for 6 hrs. Normalized luciferase activity was determined in triplicates.
# Full-length human PKCθ and its derivatives were cloned as a GFP fusion protein in the pMX retroviral vector. Retroviral supernatants were used to infect preactivated CD4^+ T cells from PKCθ^−/− or WT OT-II mice. Transduced cells were rested for an additional three days. On the day of experiment, APC were prepared from WT B6 splenocytes that were depleted of CD4^+ T cells using anti-CD4 (L3T4) mAb-coated beads. T-depleted APC were stained with 20 μM of cell tracker blue (CMAC) and then pulsed with 5 μM Ova peptide, respectively, for 30 min at 37° C. T cell-APC conjugation was carried out at 37° C. for 20 min before fixation with 4% paraformaldehyde and permeabilization with PBS supplemented with 1% BSA and 0.1% Triton X-100. […] Immunofluorescene images were captured using a Marianas digital fluorescence-microscopy system (Intelligent Imaging Innovations) as described (Becart, S. et al. Immunity 29, 704-719 (2008)).
# Given the critical role of the PKCθ V3 domain in the enzyme's CD28 association, IS localization, and activation of downstream targets, ectopic expression of the isolated V3 domain was analyzed for interference with the localization and function of PKCθ in stimulated T cells. […]
# [2] = system: Naïve CD4+ T cells from B6 mice, Treg (FoxP3+) cells; assay: In vitro Treg (FoxP3+) differentiation of retrovirally transduced CD4+ T cells; format: cell-based, mouse; details: Treg-polarizing conditions (IL-2+TGFβ), GFP+FoxP3+ cells
# Description: (§1) Naïve CD4+ T cells from B6 mice stimulated with anti-CD3 plus anti-CD28 mAbs and differentiated in vitro under Treg-polarizing conditions (IL-2+TGFβ) were retrovirally transduced with empty pMIG vector, or with the indicated PKCθ V3 vectors. Transduced (GFP+) cells were sorted and FoxP3+ cells were analyzed by intracellular staining.
# as §1, with “CD4^+” for “CD4+”, “(GFP+)” for “(GFP+) cells were sorted and”, “intracellular staining 8 hours after restimulation. Right panels represent cumulative data showing percentage of GFP+FoxP3+ cells by intracellular” for “intracellular”
# [3] = system: Th2-mediated lung inflammation; assay: Th2-mediated Ova-induced airway inflammation after adoptive transfer of transduced OT-II Th2 cells; format: in vivo, mouse; details: transferred Th2 cells, aerosolized Ova 3 consecutive days
# Excerpt: (FIG. 7A-7D) OT-II CD4^+ T cells stimulated with anti-CD3 plus anti-CD28 mAbs and differentiated in vitro under Th2 (FIG. 7A-7C) or Th1 (FIG. 7D, 7E)-polarizing conditions were retrovitrally transduced with the same PKCθ V3 vectors as in FIG. 6. Sorted GFP^+ populations were adoptively transferred into naïve B6 mice, which were challenged with aerosolized Ova for 3 consecutive days. BAL fluid were obtained 1 d post-challenge and analyzed for total mononuclear cell infiltration (FIG. 7A, 7D) and cytokine expression using IL-4 (FIG. 7B), IL-5 (FIG. 7C) and IFN-γ (FIG. 7E) ELISA.
# CD4^+ T cells from OT-II B6 mice were isolated and cultured with plate-bound anti-CD3 (5 μg/ml), soluble anti-CD28 (2.5 μg/ml) and IL-2 (100 U/ml) under Th1 or Th2 polarizing conditions. The cells were retrovirally infected on days 2-4 and cultured for an additional 3 days. GFP^+ cells were sorted, and 1×10^6 cells were injected intravenously into naïve WT B6 mice. One day later, mice received aerosolized Ova (5 mg/ml in 20 ml PBS) for 30 min, once a day for 3 consecutive days, using ultrasonic nebulization. Mice were sacrificed 24 h after the last challenge and assessed for lung inflammation. Collection of BAL fluid and determination of cytokine levels were carried out as described (Salek-Ardakani, S. et al. J Immunol 173, 6440-6447 (2004)).
# The above findings were extended to an in vivo antigen-specific inflammatory response in an airway inflammation model, using a T cell adoptive transfer system. Mice receiving OT-II Th2 cells transduced with an empty vector developed an inflammatory response by comparison with PBS-challenged control mice, as evidenced by a significant increase in the number of infiltrating leukocytes in the bronchoalveolar lavages (BAL) fluid (FIG. 7a) and in the levels of signature Th2 cytokines, IL-4 (FIG. 7b) and IL-5 (FIG. 7c).
molecule,measurement,setting,value
B1,effect on IS localization of endogenous PKCθ,[1],did not interfere with the IS localization of endogenous PKCθ
same,subcellular localization of the transduced V3 protein,[1],did not localize anymore in the IS
same,promotion of Treg differentiation,[2],not
same,inhibition of the Th2 inflammatory response,[3],partially rescued the inhibition

# Source: patent US20180335433A1, “COMPOSITIONS TARGETING PKC-THETA AND USES AND METHODS OF TREATING PKC-THETA PATHOLOGIES, ADVERSE IMMUNE RESPONSES AND DISEASES” (La Jolla Institute for Allergy and Immunology, priority 2011, published 2018)
